According to paper PMC3711486:

Target: unlabeled actin filaments (chicken skeletal muscle actin) (chicken) (UniProt P68139)
Assay: other fluorescence titration

KDR with filaments 10% saturated with cofilin: 0.66 µM
KDR with filaments 20% saturated with cofilin: 0.87 µM
KDR with filaments 30% saturated with cofilin: 1.5 µM
KDR with filaments 45% saturated with cofilin: 2.5 µM
percent of Arp2/3 complex bound, filaments more than 80% saturated with cofilin: 5%
Substance: S. pombe Arp2/3 complex labeled with pyrene (pyrenyl-Arp2/3 complex) (from UniProt Q9UUJ1 1-390; O14241 1-317; Q92352 1-168)
